Legend:
[1] = target: T1, human CD47 expressed on cells (CD47 expressing CHO cells, Jurkat, HL60, DLD1, Raji) (human, UniProt Q08722 19-292); assay: EC50 (nM) as grade, flow cytometry, Fab on DLD1 cells; legend +++: <5 nM
T1 construct: also called CHO-CD47; IAP

[2] = target: T1, human CD47 expressed on cells (CD47 …); assay: EC50 (nM) as grade, flow cytometry, Fab on HL60 cells; legend +++: <1 nM
[3] = target: T2, biotin labelled polyhistidine tagged CD47 protein (Novoprotein, Cat#321) (human, UniProt Q08722 19-139, biotin labelled (site not stated)); assay: IC50 (nM) as grade, Fab blocking biotinylated CD47 binding to SIRPα-CHO cells; legend +: >65 nM
T2 construct: Bought protein; also called biotinylated CD47; biotinylated human CD47 protein; not shown: polyhistidine tag

[4] = target: T1, human CD47 expressed on cells (CD47 …); assay: EC50 (nM) as grade, flow cytometry, Fab on DLD1 cells; legend +: >60 nM
[5] = target: T2, biotin labelled polyhistidine tagged …; assay: IC50 (nM) as grade, Fab blocking biotinylated CD47 binding to SIRPα-CHO cells; legend ++: >10 nM and <65 nM
[6] = target: T1, human CD47 expressed on cells (CD47 …); assay: EC50 (nM) as grade, flow cytometry, Fab on DLD1 cells; legend ++: >5 nM and <60 nM
[7] = target: T3, His-tagged CD47 (Homo sapiens (Human), UniProt Q08722 19-139, limits assumed); assay: IC50 (nM) MFI as grade, blocking His-tagged CD47 binding to SIRPα-CHO cells; legend +++: <2 nM
T3 construct: not shown: His tag

[8] = target: T3, His-tagged CD47; assay: flow cytometry blocking assay: His-tagged CD47 with Fab on SIRPα-expressing CHO cells (SIRPα is the blocked ligand), anti-His-APC, MFI
[9] = target: T3, His-tagged CD47; assay: flow cytometry blocking assay: His-tagged CD47 with Fab on SIRPα-expressing CHO cells (SIRPα is the blocked ligand), anti-His-APC, frequency
[10] = target: T3, His-tagged CD47; assay: IC50 (nM) Frequency as grade, blocking His-tagged CD47 binding to SIRPα-CHO cells; legend +: >2.7 nM
[11] = target: T1, human CD47 expressed on cells (CD47 …); assay: IC50 as grade, SIRPα blocking on Raji cells; legend ++: >1 nM and <20 nM
[12] = target: T1, human CD47 expressed on cells (CD47 …); assay: flow cytometry on human platelets, donor 1, MFI
[13] = target: T1, human CD47 expressed on cells (CD47 …); assay: flow cytometry blocking assay on Raji cells, SIRPα is the blocked ligand, MFI
[14] = target: T1, human CD47 expressed on cells (CD47 …); assay: IC50 as grade, SIRPα blocking on Raji cells (second part of the table); legend ++: >1 nM and <20 nM
[15] = target: T1, human CD47 expressed on cells (CD47 …); assay: IC50 as grade, SIRPα blocking on Raji cells; legend +: >20 nM
[16] = target: T1, human CD47 expressed on cells (CD47 …); assay: flow cytometry on human platelets, donor 2, MFI
[17] = target: T1, human CD47 expressed on cells (CD47 …); assay: flow cytometry on human red blood cells, donor 1, MFI
[18] = target: T1, human CD47 expressed on cells (CD47 …); assay: flow cytometry on human red blood cells, donor 2, MFI

B1: ABU16 (Fab) (Fab, V domains shown)
VH: RVQLQQSGAELVRPGTSVKVSCKASAYAFTNYLIEWVKKRPGQGLEWIGVINPGSGGTNYNEKFKGKATLTADKSSSTAYMQLSSLTSEDSAVYFCARGDGYGSLFAYWGQGTLVTVSA
VL: RHCFNQSPAIMSASPGEKVTMTCSASSSVSYMHWYQQKSGTSPKRWIYDTSNLASGVPVRFSGSGSGTSYSLTISRMEAEDAATYYCQQWSNYPFTFGSGTKLELK
notes: Phage-derived Fab: murine VL and VH fused to human CL and CH1
EC50 [1]: < 5 nM | EC50 [2]: < 1 nM | IC50 [3]: > 65 nM

B2: ABU20 (Fab) (Fab, V domains shown)
VH: RGKVQESGPGLVKPSQSLSLTCSVTGYSITSGYYWNWIRQFPGNKLEWMGYINYDGSNNYNPSLKNRISITRDTSKNQFFLKLNSVTTEDTATYYCARGYYYGSSYGYWYFDVWGTGTTVTVSS
VL: DAVVTQESALTTSPGETVTLTCRSSTGAVTTNNYANWVQEKPDHLFTGLIGGTNNRAPGVPARFSGSLIGDKAALTITGAQTEDEAIYFCALWYSNHLVFGGGTKLTVL
notes: as for B1
EC50 [4]: > 60 nM | IC50 [5]: 10 to 65 nM | EC50 [2]: < 1 nM

B3: ABU24 (Fab) (Fab, V domains shown)
VH: EVQLQQPGTELVKPGASVKLSCKASGYTFTSYWMHWVKQRPGQGLEWIGNVVPNNDGTNYNEKFRNKATLTVDKSSSTAYMQLSSLTSEDSAVYYCAVTYFAYWGQGTLVTVSA
VL: DAVVTQESALTTSPGETVTLTCRSSTGAVSTSNYANWVQEKPDHLFTGLIGGTNNRAPGVPARFSGSLIGDKAALTITGAQTEDEAIYFCALWYSNHWVFGGGTKLTVL
notes: as for B1
EC50 [6]: 5 to 60 nM | EC50 [2]: < 1 nM | IC50 [3]: > 65 nM

B4: ABU11 (Fab) (Fab, V domains shown)
VH: EVQLQQPGAELVRPGSSVKLSCKASGYSFTTYWMHWVKQRPGQGLEWIGNINPSSGDSHYNEKFKSKATLTVDKSSSTAYLQLNSLTSEDSAVYYCARDYYGAYWGHGTLVTVSA
VL: DIQMTQSPASLSASVGETVTITCRASENVYSYLAWYQQKQGKSPQLLVYKANTLAEGVPSRFSGSGSGTQFSLKINSLQPEDFGTYYCQHHYGTPLTFGSGTKLEIK
notes: as for B1
EC50 [4]: > 60 nM | IC50 [5]: 10 to 65 nM | EC50 [2]: < 1 nM

B5: ABU40 (Fab) (Fab, V domains shown)
VH: EVQLQQPGTELVKPGASVKLSCKASGYSFTTYWMHWVKQRPGQGLEWIGNINPSSGDSHYNEKFKSKATLTVDKSSSTAYMQLNSLTSEDSAVYYCARDYYGAYWGHGTLVTVSA
VL: DIQMTQSPASLSASVGETVTITCRASENIYSYLAWYQQKQGKSPQLLVYNAKTLAEGVPSRFSGSGSGTQFSLKINSLQPEDFGSYYCQHHYGTPLTFGAGTKLELK
notes: as for B1
IC50 [7]: < 2 nM | IC50 (read off the curve) [8]: ~2 nM | IC50 [5]: 10 to 65 nM | EC50 [6]: 5 to 60 nM | EC50 [2]: < 1 nM | IC50 (read off the curve) [9]: ~3 nM | IC50 [10]: > 2.7 nM

B6: H-ABU 5 (antibody, V domains shown)
VH: QVQLVQSGAEVKKPGASVKVSCKASGYTFTDNYINWVRQAPGQRLEWMGWIYLGSGNTKYNEKFKGRVTITRDTSASTAYMELSSLRSEDTAVYYCARREERGFAVWGQGTLVTVSS
VL: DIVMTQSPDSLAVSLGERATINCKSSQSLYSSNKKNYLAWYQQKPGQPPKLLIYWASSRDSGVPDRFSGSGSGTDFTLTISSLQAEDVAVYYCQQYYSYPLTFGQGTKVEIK
IC50 [11]: 1 to 20 nM

B7: H-ABU 9 (antibody, V domains shown)
VH: QVQLVQSGAEVKKPGASVKVSCKASGYTFTDLYINWVRQAPGQRLEWMGWIYLGSGNTKYNEKFKGRVTITRDTSASTAYMELSSLRSEDTAVYYCARREERGFAYWGQGTLVTVSS
VL: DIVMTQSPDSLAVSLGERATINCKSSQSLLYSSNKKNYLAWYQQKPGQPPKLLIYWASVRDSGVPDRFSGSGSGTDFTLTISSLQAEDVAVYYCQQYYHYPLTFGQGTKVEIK
EC50 (read off the curve) [12]: ~1 nM | IC50 (read off the curve) [13]: ~8 nM | IC50 [14]: 1 to 20 nM

B8: H-ABU 3 (antibody, V domains shown)
VH: QVQLVQSGAEVKKPGASVKVSCKASGYTFTDSYINWVRQAPGQRLEWMGWIYTGSGNTKYNEKFKGRVTITRDTSASTAYMELSSLRSEDTAVYYCARREERGFAYWGQGTLVTVSS
VL: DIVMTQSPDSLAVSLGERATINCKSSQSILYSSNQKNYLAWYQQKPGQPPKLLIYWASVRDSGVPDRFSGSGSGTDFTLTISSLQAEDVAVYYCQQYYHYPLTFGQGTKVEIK
IC50 [15]: > 20 nM

B9: H-ABU 10 (antibody, V domains shown)
VL: DIVMTQSPDSLAVSLGERATINCKSSQSLVSSSQKNYLAWYQQKPGQPPKLLIYWASVRDSGVPDRFSGSGSGTDFTLTISSLQAEDVAVYYCQQYYSYPLTFGQGTKVEIK
VH: QVQLVQSGAEVKKPGASVKVSCKASGYTFTDNYINWVRQAPGQRLEWMGWIYLGSGNTKYNEKFKGRVTITRDTSASTAYMELSSLRSEDTAVYYCARREERGFAPWGQGTLVTVSS
EC50 (read off the curve) [12]: ~0.6 nM | EC50 (read off the curve) [16]: ~0.6 nM | IC50 (read off the curve) [13]: ~1 nM | IC50 [14]: 1 to 20 nM | EC50 (read off the curve) [17]: ~3 nM | EC50 (read off the curve) [18]: ~3 nM

— patent US20200247886A1 (ZLIP, published 2020)
